Where a SMILES comes first, the peptide text is derived from it. Bridges are numbered along the chain shown (N, C = ends). Where no end group is shown, it is not given here.
B1: Ac-ECFDLLVRHWVACGLLR-NH2 (BLyS0027) (peptide)
peptide: Ac-ECFDLLVRHWVACGLLR-NH2
modifications: disulfide 2-13 (inferred)
B2: Ac-ECFDLLVRAWVPCSVLK-NH2 (BLyS0051) (peptide)
peptide: Ac-ECFDLLVRAWVPCSVLK-NH2
modifications: disulfide 2-13 (inferred)
B3: SEQ ID NO 114 (peptide)
peptide: ECFDRLVRAWVPCTALT
modifications: disulfide 2-13 (inferred)
B4: SEQ ID NO 115 (peptide)
peptide: ECFDLLVRRWVPCHLIT
B5: SEQ ID NO 116 (peptide)
peptide: ECFDILVGRWVPCGLIH
modifications: disulfide 2-13 (inferred)
B6: SEQ ID NO 117 (peptide)
peptide: ECFDPLVRDWVRCDILT
modifications: disulfide 2-13 (inferred)
B7: SEQ ID NO 118 (peptide)
peptide: ECFDPLVRVWVPCTVLR
B8: SEQ ID NO 119 (peptide)
peptide: ECFDSLVRAWVPCGVLS
B9: SEQ ID NO 120 (peptide)
peptide: ECFDVLVHRWVPCGLIR
B10: SEQ ID NO 121 (peptide)
peptide: ECFDHLVRIWVPCTALA
modifications: disulfide 2-13 (inferred)
B11: SEQ ID NO 122 (peptide)
peptide: ECFDTLVNAWVPCNLLD
modifications: disulfide 2-13 (inferred)
B12: SEQ ID NO 123 (peptide)
peptide: ECFDRLVNGWVPCAVLH
modifications: disulfide 2-13 (inferred)
B13: SEQ ID NO 124 (peptide)
peptide: ECFDRLVNAWVDCRLLA
modifications: disulfide 2-13 (inferred)
B14: SEQ ID NO 125 (peptide)
peptide: ECFDLLVNDWVPCGAIT
modifications: disulfide 2-13 (inferred)
B15: SEQ ID NO 126 (peptide)
peptide: ECFDALVRRWVDCSLLR
B16: SEQ ID NO 127 (peptide)
peptide: ECFDALVHRWVDCAVLG
modifications: disulfide 2-13 (inferred)

What was measured:
BLyS = target: T1, BLyS (Homo sapiens, UniProt Q9Y275); assay: Competitive displacement ELISA (biotinylated miniBR3), peptide-PEG conjugates; type: binding
T1 construct: A DNA fragment encoding human BAFF (residues 82-285) was cloned; His-tag (with thrombin cleavage site) (N, cleaved yes); made in house; host or cells: E. coli BL21 (DE3)
Method: The plate was washed with PBS and blocked with 1% skim milk in PBS. […] After washing with PBS/0.05% Tween, 100 μl well of each dilution was transferred and incubated for 1 hour at room temperature. The plate was washed with PBS/0.05% Tween and incubated 15 min with 100 μl/well of 0.1 U/ml Streptavidin-POD (Boehringer Mannheim) in PBS/0.05% Tween.

B cells [1] = assay: B cell depletion by anti-CD20 mAb, BR3-Fc or combination in hCD20+ mice (FIG. 29, 30); type: in vivo, mouse
Method: FACS analysis was performed on of spleen, blood, lymph node B cells (gated on CD21^+CD23^+).
(§1) Mice were treated with control IgG2a, BAFFR/BR3-Fc (100 μg/mouse IP daily for 12 days), anti-hCD20 mAb (100 μg/mouse IP on day 9) or the combination of BAFFR/BR3-Fc and anti-hCD20 mAb (same dosing as single treatment groups). B220^+ splenocytes were isolated on day 13 and stained for CD21 and CD23. N=5 mice/group.
In the Experimental Examples, the BR3-Fc or BAFFR/BR3-Fc used is hBR3-Fc of SEQ ID. NO. 2. […] Each group consisted of 4 mice. Two days following the last injection, the mice were sacrificed and analyzed for hCD20^+ B cells. FACS analysis of spleen, blood, lymph node and Peyer's Patches were analyzed for B cell markers (CD21^+CD23^+).
as §1, with “For the experiment shown in FIG. 30, hCD20 Tg+ mice” for “Mice”, “mice/group. […] The mice were treated with single doses of 0.1 mg control IgG2a, BAFF/BR3-Fc or anti-hCD20 mAb. Splenocytes were analyzed on day 4. N=5 mice/group.” for “mice/group.”

[2] = Serum IgG and IgM in BR3-Fc treated mice; type: in vivo, mouse
[3] = Expected serum IgG and IgM in responding human patients; type: in vivo; conditions: human patients responding to treatment
BAFF/BLyS = target: T2, BAFF/BLyS (Mus musculus, UniProt Q9WU72); conditions: lupus-prone mice; cited from earlier work
T2 construct: host or cells: lupus-prone mice

[4] = tested on: T-independent B cell response; assay: T-independent immune response to Streptococcus pneumoniae IV after B cell depletion; type: in vivo, mouse; conditions: mAb day 0, S. pneumoniae IV i.v. day 7, response day 11
Method: On the 3 panels at the right, the spleen cells were stained for the streptococcus polysaccharide-phosphatidyl choline (the TI antigen). CD138 is a marker for plasma cells.
Next, it was determined whether upon B cell depletion, the mice were able to develop T independent immune response. […] At day 7, the mice were injected i.v. with Streptococcus pneumoniae IV to induce a response to the polysaccharide.

lymphoid B cell lines = conditions: binds human complement; cited from earlier work
B cells [5] = conditions: peripheral blood, lymph nodes, bone marrow; cited from earlier work
[6] = target: T3, human BAFF (residues 82-285) (human, UniProt Q9Y275 82-285); assay: competitive displacement ELISA on BAFF-coated plates, biotinylated miniBR3 as tracer
T3 construct: Coated on plates in the ELISAs; also used biotinylated or free in solution for phage sorting; also called BAFF82-285; BLyS82-285

[7] = target: T3, human BAFF (residues 82-285); assay: phage display selection on BAFF

T1 sequence (Q9Y275 82-285): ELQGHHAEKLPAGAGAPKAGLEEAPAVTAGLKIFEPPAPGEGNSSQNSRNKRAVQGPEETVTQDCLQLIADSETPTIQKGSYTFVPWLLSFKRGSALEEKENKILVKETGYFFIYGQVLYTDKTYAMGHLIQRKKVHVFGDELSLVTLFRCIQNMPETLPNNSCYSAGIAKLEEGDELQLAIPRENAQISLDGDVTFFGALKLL
T3 sequence (Q9Y275 82-285): as above
T2 sequence (Q9WU72 127-309 limits assumed): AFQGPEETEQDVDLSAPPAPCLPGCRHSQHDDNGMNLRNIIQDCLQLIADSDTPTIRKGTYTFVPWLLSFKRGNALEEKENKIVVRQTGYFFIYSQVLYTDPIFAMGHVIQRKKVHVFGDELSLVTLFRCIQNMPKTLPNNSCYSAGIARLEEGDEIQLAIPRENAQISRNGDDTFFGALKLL

Molecule	binding result [7]	other results
CC(=O)N[C@@H](CCC(=O)O)C(=O)N[C@H]1CSSC[C@@H](C(=O)NCC(=O)N[C@@H](CC(C)C)C(=O)N[C@@H](CC(C)C)C(=O)N[C@@H](CCCNC(=N)N)C(N)=O)NC(=O)[C@@H]2CCCN2C(=O)[C@H](C(C)C)NC(=O)[C@H](Cc2c[nH]c3ccccc23)NC(=O)[C@H](Cc2c[nH]cn2)NC(=O)[C@H](CCCNC(=N)N)NC(=O)[C@H](C(C)C)NC(=O)[C@H](CC(C)C)NC(=O)[C@H](CC(C)C)NC(=O)[C@H](CC(=O)O)NC(=O)[C@H](Cc2ccccc2)NC1=O [BLyS0048] (Ac-ECFDLLVRHWVPCGLLR-NH2; disulfide 2-13)	–	IC50 (BLyS; 3 ng/ml biotinylated miniBR3, four-parameter fit): 0.014 µM; IC50 (BLyS; separate experiment): 0.015 µM
BR3-Fc: hBR3-Fc immunoadhesin of SEQ ID NO. 2, BAFF antagonist	–	T2 and follicular B cells in the spleen (B cells [1]; hCD20+ mice): decreases; marginal zone B cells in the spleen (B cells [1]; hCD20+ mice): decreases; mature circulating B cells in the blood and lymph nodes (B cells [1]; hCD20+ mice, 100 micrograms every other day Days 1 through 12): decreases; MZ and T2/FO B cells in spleen (FIG. 30, panel 3) (B cells [1]; treatment for ~2 weeks, 100 μg/mouse IP daily for 12 days, splenocytes day 13): marked decrease; Serum levels of IgG and IgM [2]: reduced; serum IgG and IgM levels [3]: reduction in serum IgG and IgM levels; autoimmune serologies, renal pathology and mortality (BAFF/BLyS): improved autoimmune serologies, renal pathology and mortality
rituximab [Rituxan]	–	B cell response from the marginal zone and germinal centers of the spleen to T-independent antigen [4]: did not affect the B cell response; complement-dependent cytotoxicity (CDC) (lymphoid B cell lines): lyses lymphoid B cell lines through complement-dependent cytotoxicity (CDC); B cell depletion (B cells [5]): depletes B cells from the peripheral blood, lymph nodes, and bone marrow
B1	–	binding result [6]: binds
B2	–	binding result [6]: binds
B3	binds	–
B4	binds	–
B5	binds	–
B6	binds	–
B7	binds	–
B8	binds	–
B9	binds	–
B10	binds	–
B11	binds	–
B12	binds	–
B13	binds	–
B14	binds	–
B15	binds	–
B16	binds	–

— US20050163775A1, “Combination therapy for B cell disorders” (Genentech, Inc., priority 2003, published 2005)
